The subject of this series is Histone H3;Histone H4 (His6-TEV) (Drosophila melanogaster;Drosophila melanogaster). The series can be described thus: restriction enzyme protection. The conditions noted are these: purified tetrasome, Wheat germ cell-free co-expression with NAP1 at 26 C for 6 h, TALON purification in 10 mM Tris/HCl pH 7.4, 40 mM NaCl (elution 250 mM imidazole), 6% native ….

As to 601_185bp, the binding signal (% protection from PmlI) (37 C) turned out to be 81. Also, the binding signal (% protection from BsiWI) (55 C) is 93.6.
